Experimental data taken from patent publication US20220089758A1.

Molecular target: CD40 protein displayed on cell surface (UniProt P25942)
Test: cell-based or functional assay

Chain of CD40 protein displayed on cell surface (P25942 21-277 limits assumed): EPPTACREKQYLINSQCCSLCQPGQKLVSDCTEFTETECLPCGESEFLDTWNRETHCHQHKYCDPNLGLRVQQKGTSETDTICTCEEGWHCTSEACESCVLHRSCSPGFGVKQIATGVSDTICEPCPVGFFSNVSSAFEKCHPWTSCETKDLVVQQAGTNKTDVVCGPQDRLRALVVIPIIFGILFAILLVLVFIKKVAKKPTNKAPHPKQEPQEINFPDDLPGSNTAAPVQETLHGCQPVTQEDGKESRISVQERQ

EC50 in activating MoDC assessed by CD86 expression: 4.2 nM
EC50 in activating monocyte derived dendritic cell (MoDC) assessed by CD80 expression: 5 nM
Substance: CP-870893 (antibody)
